The values that follow come from PMC5656675, “Structure based biophysical characterization of the PROPPIN Atg18 shows Atg18 oligomerization upon membrane binding” (Scientific Reports, 2017).

Data set [1] deals with the molecule itself. Put plainly: native MS; purified Atg18 exchanged into 200 mM ammonium acetate; Q-ToF Ultima modified for high mass complexes.
Data set [2] deals with the molecule itself. In words: FRET or BRET; stopped-flow, 0.5 µM acceptor-labelled Atg18 C113 bound to LUVs with PtdIns(3,5)P2 (1 mM total lipid) mixed with 0.5 µM donor-labelled Atg18 C113 free in solution; 25 °C, HP150 buffer with 0.1 mM TCEP; dye pairs Alexa Fluor 488/546 and Oregon Green/Texas Red.

B1: Pichia angusta Atg18 (wild type) (natural protein, Pichia angusta (Hansenula polymorpha))
chain: MASPNPLAFEAATAAHEVAASYVTEHKPRKNDNINFANFNQDFSCVSVGYSNGYKIYNCEPFGQCYSKSDGSIGIVEMLFSSSLLAIVGMGEQHSLSPRRLKIINTKRQTTICELTFPGAILAVKLNRERLVVLLEETIYIYDINNMRLLHTIETPSNPNGLIALSPSSENNYLAYPSPQKLAPNPQTEVTLHSNPQTVRNGDVIIFDAKTLQPTSVIEAHRTSLAAIALSKDGLLLATASDKGTIIRVFSVATGIKLYQFRRGTYPTKIYSLAFSPDNRFVIASSATETVHIFRLGEEEAANTIKSANKKARLTKAQVPNPLETSPDIYPHNQHTSSDEDEELNEDEEDLDGDEDEDLEDDAHVPVSLQRGRSSSSTGSFHSSESMTDKLKEPLVDNSRKSVARMLRRTSQSLGRKAAEKMGTYLPPKFSSILEPNRHFASLKVPASKETKTVVGVGSKIWDDLIPSVYLKDDANSITETSEDLVNKKLVHIMVITSEGFFYKFGLDPERGGDCVLLHQQSLFG
notes: Atg18 of Pichia angusta (Hansenula polymorpha), UniProt entry Q5QA94, synthetic gene in pET-28a; also called PaAtg18; source: E. coli, purified (HisTrap, Superdex 200); not shown: His-tag, N-terminal, kept
In the case of B1, the “stoichiometry N” value in data set [1] is at most 4.

B2: Atg18 C113 single cysteine mutant, fluorescently labelled (natural protein, Pichia angusta (Hansenula polymorpha))
chain: MASPNPLAFEAATAAHEVAASYVTEHKPRKNDNINFANFNQDFSAVSVGYSNGYKIYNAEPFGQAYSKSDGSIGIVEMLFSSSLLAIVGMGEQHSLSPRRLKIINTKRQTTICELTFPGAILAVKLNRERLVVLLEETIYIYDINNMRLLHTIETPSNPNGLIALSPSSENNYLAYPSPQKLAPNPQTEVTLHSNPQTVRNGDVIIFDAKTLQPTSVIEAHRTSLAAIALSKDGLLLATASDKGTIIRVFSVATGIKLYQFRRGTYPTKIYSLAFSPDNRFVIASSATETVHIFRLGEEEAANTIKSANKKARLTKAQVPNPLETSPDIYPHNQHTSSDEDEELNEDEEDLDGDEDEDLEDDAHVPVSLQRGRSSSSTGSFHSSESMTDKLKEPLVDNSRKSVARMLRRTSQSLGRKAAEKMGTYLPPKFSSILEPNRHFASLKVPASKETKTVVGVGSKIWDDLIPSVYLKDDANSITETSEDLVNKKLVHIMVITSEGFFYKFGLDPERGGDAVLLHQQSLFG
modifications: C113 labelled with Alexa Fluor 488 C5 maleimide (donor) or Alexa Fluor 546 C5 maleimide (acceptor); in the repeat with Oregon Green 488 maleimide or Texas Red C2 maleimide
notes: Atg18 of Pichia angusta (Hansenula polymorpha), UniProt entry Q5QA94, synthetic gene in pET-28a; single cysteine mutant that keeps C113; That the other four are alanine in it is read from this; Two differently labelled copies of the same protein were mixed; also called C113 mutant; source: E. coli, purified (HisTrap, Superdex 200), labelled with maleimide dye
As to B2, the binding result in data set [2] was “binds”.

By stoichiometry N is commonly meant a count of units in the complex or per binding partner.
